Columns and labels:
[1] = biological target: T1, mutant form of Siah (Leu211 to Arg) (Mus musculus, UniProt P61092, L211R); assay: Binding of PHYL to mutant form of Siah; conditions: method not stated
T1 construct: made in house
T1 sequence (P61092 80-282 L211R): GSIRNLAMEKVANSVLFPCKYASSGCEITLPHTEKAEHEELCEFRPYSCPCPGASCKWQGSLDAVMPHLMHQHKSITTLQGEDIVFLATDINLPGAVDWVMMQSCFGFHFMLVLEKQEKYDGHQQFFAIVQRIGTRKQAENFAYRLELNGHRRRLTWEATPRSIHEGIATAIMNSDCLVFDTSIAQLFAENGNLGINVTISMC

Siah = biological target: T2, Siah (Mus musculus, UniProt P61092); assay: Interaction studies using bacterially expressed proteins; format: binding
T2 construct: made in house; host or cells: bacteria
T2 sequence (P61092 1-282): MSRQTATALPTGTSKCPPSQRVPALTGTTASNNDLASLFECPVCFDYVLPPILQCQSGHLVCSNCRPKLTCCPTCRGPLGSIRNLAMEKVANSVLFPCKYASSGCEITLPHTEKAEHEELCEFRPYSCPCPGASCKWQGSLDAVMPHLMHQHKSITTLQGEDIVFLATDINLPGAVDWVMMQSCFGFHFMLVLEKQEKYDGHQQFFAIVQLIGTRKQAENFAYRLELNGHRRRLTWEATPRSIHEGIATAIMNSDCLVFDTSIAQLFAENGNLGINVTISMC
Description: PHYL is known to interact and function with SINA, the Drosophila orthologue of mammalian Siah, in the targeted degradation of the transcriptional repressor tramtrack 88 (TTK88). Applicants have shown that it interacts similarly with mammalian Siah.

binding to mutant form of Siah [1]: does not bind
affinity of interaction with Siah (in words) (Siah): high affinity
B1: PHYL: phyllopod (PHYL) protein from Drosophila (protein, UniProt Q27934 1-400, looked up)
Protein phyllopod: MSTNQQQQANPSAAVAAPAASSEYLKRTCLICGCHTNQTINIYEPRSGPNIVQLIQAKFKFQPLNEDKFLCFSCNNWLINWHSLQAVNSNEAESQSQSPSHMGNSVLQQERTKLRPVAMVRPTVRVQPQSQPQLQPQVPINPTPAPIVYSKRRASRRSASVSRMSRVLRQCCVESLRRSPKKRNQQSVFVCLRPQGQKRSNAICKVECVAPRRKPVERLVKDVAATATPTPVLNTQSTPTYQRFPQPSVDGKVVAMFRRLGTTLSREEPAAYSAESNPACSKLPQIMSPLKEAPRWTRDLDDDEILLEFDTAISEVLPTARYQVTHEENKENQQAQEMELELEEEEEVDGRAELEVVQEAEAPLEPQSHHKQGNSHQNSHQASIQLAGLRLPMGLSISLV
